According to paper PMC7610252 (Biochemistry, 2017):
One block for each molecule: values may come before it.

B2: FixB subunit of the FixABCX complex from Azotobacter vinelandii (natural protein, UniProt P53574 2-360, looked up)
chain: SEQPKKPTKKKVELDPRFVDVRHVWVCIESERGVVHPVSWELLGEGRKSVDALGGELYGVVICGPGERGKEICGEPVQHGADKAYLLQHEILRDYRNEPYTKALTDLVTATQPEILMLGATTLGRDLAGSVATTLGTGLVADCTELVIDTETRNLASTRPTFDGSLLCKPSSAQRHRPQMATVRPRMAMPEPDASRSGEIIEVPFSMIETDIITKVLEFIPDDTRDKPNLPFADIIVAGGRGLRNQENFQLVWDLAKVLGAEVGASRPIVQAGWAELDRQVGQSGKTVRPKLYIAAGISGAIQHRVGMDGADVIIAINTDPNAPIFDFAHYGIVGNAITVLPALTEAFKARLGQLKKAG
B3: FixC subunit of the FixABCX complex from Azotobacter vinelandii (natural protein, UniProt P53572 2-427, looked up)
chain: AERFDVIVVGAGMAGNAAAYTLAKGGLKVLQIERGETPGSKNVQGAILYADAIEKIIPDFRDDAPLERHLIEQRVWVMDDASYGYHYRSEDFNKPPYNRYTIIRVHFDQWFNKKAREAGVLTICETRHDLLIEGGKVVGVRTDRQGGEVRADAVILADGVNSRLAVKAGFSRDQPENWALAVKEIHFLPQETMEARFNIGEEEAAIEMAGKIDAGMMGTGFLYTNKESITLGVGCMLSDFKQQKISPYELLDRMKTHPSIAPLIAGSDMKEYAAHLIPEGGYNAIPQVYGDGWMIAGDAPIRHGIHREGSNLAMTTGMLAAQTLVELRAADKPFSAANLAEYKKKLDDSFVMKDLKKYRRMPEIFHKNKQFFTTYPDLLSRAAQTLIRVDGVDKKTKEKEIKKSFIGLRSLFGLIGDAFKFWRAVE

Key:
[1] = target: FixAB from Rhodospirillum rubrum (Rhodospirillum rubrum, UniProt Q6US86+Q6US87); assay: transient absorption spectroscopy of bound flavin; format: binding; conditions: FAD-reconstituted, as-isolated oxidized state; room temperature
[2] = target: B2; assay: co-purification
[3] = target: B3; assay: co-purification
[4] = target: T1, FixX subunit of the FixABCX complex from Azotobacter vinelandii (Azotobacter vinelandii, UniProt P53658 1-94); assay: co-purification
T1 sequence (looked up): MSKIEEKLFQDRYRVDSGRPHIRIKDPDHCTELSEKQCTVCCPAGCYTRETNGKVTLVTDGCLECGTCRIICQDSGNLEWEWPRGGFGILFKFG

Molecule: Cc1cc2nc3c(=O)[nH]c(=O)nc-3n(C[C@H](O)[C@H](O)[C@H](O)COP(=O)(O)OP(=O)(O)OC[C@H]3O[C@@H](n4cnc5c(N)ncnc54)[C@H](O)[C@@H]3O)c2cc1C [FAD]
transient absorption spectroscopy of bound flavin [1]: two ASQ species can be formed in the FixAB unit, consistent with the presence of two flavins

stoichiometry N [2]: 1
B1: FixA subunit of the FixABCX complex from Azotobacter vinelandii (natural protein, UniProt P53576 1-281, looked up)
chain: MHSVVCIKQLPDSAQIRVHPVTNTIMRQGVPAIINPYDLFALEEALRLKDKFGGTVTVVTMGPPMAEAALRKCLSFGADDAILVSDRAFAGSDTLATSYALSAVIRKIMEDMPVDLIFTGKQTIDGDTAQVGPGIAKRLDYQLLTYVSRIVDVDTAKKEIQVERRAEGGVQLLETSLPCLITMLEGTNEMRFGDLDDLFRAARHELKVWDRVAAGIDTVEMIGLKGSPTVVSKVFAPKPRSKRAELIESHDSDPKNLAEAALAKLFTQHPNLEQEIAKRAV

Molecule: B2
stoichiometry N [3]: 1

Molecule: B3
stoichiometry N [4]: 1
